The record followed here is patent publication US20230012273A1 (Boehringer Ingelheim, published 2023).

Test [1] addresses T1, mouse SIRPα extracellular domain + His-tag (NP_031573) (mouse, UniProt P97797 32-373).
T1 chain: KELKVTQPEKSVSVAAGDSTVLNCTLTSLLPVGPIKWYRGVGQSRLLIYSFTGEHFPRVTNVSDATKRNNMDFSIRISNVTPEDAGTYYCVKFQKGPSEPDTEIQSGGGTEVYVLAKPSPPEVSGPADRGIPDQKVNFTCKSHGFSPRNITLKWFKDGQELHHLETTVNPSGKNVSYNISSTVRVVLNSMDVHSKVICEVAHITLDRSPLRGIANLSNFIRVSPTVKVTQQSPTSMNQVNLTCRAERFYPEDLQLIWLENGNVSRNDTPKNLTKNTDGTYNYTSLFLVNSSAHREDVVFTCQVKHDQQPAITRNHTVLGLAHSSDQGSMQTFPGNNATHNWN
The test can be described thus: SPR, Ab captured, ECD-His analyte. The method in brief: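 In HBS-EP+ (1×), captured antibodies are exposed to a twofold concentration series of SIRP extracellular domain carrying a His tag, using 300 s contact at 30 μl/min and a 600 s dissociation window.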
A general note: SPR reads the build-up and loss of mass on a sensor chip optically.

The target in test [2] is T2, full-length human SIRPγ (NP_061026.2) on cells (human, UniProt Q9P1W8 29-387).
T2 construct: also called CHO-hSIRPγ; γ WT
The test can be described thus: flow cytometry, CHO cells; CHO cells expressing hSIRPγ; n = 1. As to the method: Antibody binding to cells expressing human SIRPγ(NP_061026.2) is evaluated by flow cytometry. SIRPγ-expressing CHO cells are blocked with donkey IgG and incubated on ice with increasing concentrations of antibody for 60 minutes, washed and stained with AF647-conjugated donkey F(ab′)₂ anti-human IgG secondary reagent. Cells are washed, fixed, and analyzed by flow cytometry. Median fluorescent intensity is determined and used as a measure of antibody binding.
Background: A flow cytometer gives signals particle by particle.

Test [3] deals with T3, full-length cynomolgus SIRPα (XP_015313155) on CHO cells, clone P3HD10 (cynomolgus monkey, UniProt A0A2K5VYQ9 31-507).
T3 construct: whole, on cells; also called XP_015313155 Clone P3HD10
T3 sequence: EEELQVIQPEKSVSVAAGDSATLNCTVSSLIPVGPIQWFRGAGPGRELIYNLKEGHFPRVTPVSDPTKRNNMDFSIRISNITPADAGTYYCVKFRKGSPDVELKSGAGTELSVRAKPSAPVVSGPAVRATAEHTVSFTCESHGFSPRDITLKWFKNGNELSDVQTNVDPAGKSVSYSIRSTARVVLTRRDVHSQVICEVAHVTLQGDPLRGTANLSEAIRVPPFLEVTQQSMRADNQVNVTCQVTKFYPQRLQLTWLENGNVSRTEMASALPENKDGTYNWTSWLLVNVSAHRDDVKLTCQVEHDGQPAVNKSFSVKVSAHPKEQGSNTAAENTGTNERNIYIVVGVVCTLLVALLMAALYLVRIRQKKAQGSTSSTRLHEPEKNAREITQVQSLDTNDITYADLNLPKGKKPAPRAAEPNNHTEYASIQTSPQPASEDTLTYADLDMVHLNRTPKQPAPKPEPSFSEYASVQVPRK
The test can be described thus: flow cytometry, CHO cells. As to the method: Antibody binding to cells expressing cynomolgus (cyno) SIRPα was evaluated by flow cytometry. CHO-K1 cells expressing full-length cyno SIRPα; derived from protein sequence accession numbers (A) EGM-02252; (B) XP_015313155; or (C) NP_001271679, are blocked with donkey IgG and incubated on ice with increasing concentrations of antibodies for 60 minutes, washed and stained with AF647-conjugated donkey F(ab′)₂ anti-human IgG secondary reagent. Cells are washed, fixed, and analyzed by flow cytometry. Median fluorescent intensity is determined and used as a measure of antibody binding.

The target in test [4] is T2, full-length human SIRPγ (NP_061026.2) …. Description: flow cytometry, primary CD3+ T cells. As to the method: Antibody binding to primary human T cells expressing endogenous SIRPγ is evaluated by flow cytometry. Human peripheral blood mononuclear cells (PBMCs) are blocked with donkey IgG and incubated on ice with increasing concentrations of antibody for 60 minutes, washed and stained with AF647-conjugated donkey F(ab′)₂ anti-human IgG secondary reagent. […] Cells are washed, fixed, and analyzed by flow cytometry. Median fluorescent intensity of CD3+ gated population is determined and used as a measure of antibody binding.

For test [5] the target is unchanged. The test can be described thus: flow cytometry, Expi-CHO cells. The procedure: (§1) Expi-CHO parental cells are transduced with lentiviruses containing either full-length wild-type human SIRPγ ([…]) or full-length human SIRPγ with amino acid point mutations (Table 64) and sorted to achieve matching expression levels. These cells are blocked with donkey IgG and incubated on ice with increasing concentrations of antibodies for 60 minutes, washed and stained with AF647-conjugated donkey F(ab′)₂ anti-human IgG antibodies. Stained cells are washed, fixed, and analyzed by flow cytometry. Median fluorescent intensity is determined and used as a measure of antibody binding.

Test [6] deals with T4, full-length human SIRPγ E→D on Expi-CHO cells (human, UniProt Q9P1W8 29-387).
T4 construct: the entry already carries the change (PENV to PDNV)
The test can be described thus: flow cytometry, Expi-CHO cells. The procedure:
as §1

Test [7] addresses T5, full-length human SIRPβ1 (NP_006056.2) on cells (human, UniProt O00241 30-398).
T5 construct: also called β1 WT
Description: flow cytometry, U937 SIRPα-KO cells expressing full-length human SIRPβ1. The procedure:
Antibody binding to cells expressing full-length human SIRPβ1 (NP_006056.2) and SIRPβL (NP_001129316.1) is evaluated by flow cytometry. SIRPβ1- or SIRPβL-expressing U937^{SIRPα KO} cells are blocked with donkey IgG and incubated on ice with increasing concentrations of antibodies for 60 minutes, washed and stained with AF647-conjugated donkey F(ab′)₂ anti-human IgG secondary reagent. Cells are washed, fixed, and analyzed by flow cytometry. Median fluorescent intensity is determined and used as a measure of antibody binding.

T2 sequence (Q9P1W8 29-387): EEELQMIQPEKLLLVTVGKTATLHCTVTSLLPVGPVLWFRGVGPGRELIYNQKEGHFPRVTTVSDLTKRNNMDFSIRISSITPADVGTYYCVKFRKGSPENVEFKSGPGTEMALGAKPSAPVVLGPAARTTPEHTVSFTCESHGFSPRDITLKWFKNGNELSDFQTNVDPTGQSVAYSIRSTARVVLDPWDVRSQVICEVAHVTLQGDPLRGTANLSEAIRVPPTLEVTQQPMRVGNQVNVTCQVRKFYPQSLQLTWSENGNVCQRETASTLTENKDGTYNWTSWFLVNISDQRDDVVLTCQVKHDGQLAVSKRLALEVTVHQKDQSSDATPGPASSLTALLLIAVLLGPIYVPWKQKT
T4 sequence (Q9P1W8 29-387 E128D): as the sequence (Q9P1W8 29-387) above, with E100D counted along it
T5 sequence (O00241 30-398): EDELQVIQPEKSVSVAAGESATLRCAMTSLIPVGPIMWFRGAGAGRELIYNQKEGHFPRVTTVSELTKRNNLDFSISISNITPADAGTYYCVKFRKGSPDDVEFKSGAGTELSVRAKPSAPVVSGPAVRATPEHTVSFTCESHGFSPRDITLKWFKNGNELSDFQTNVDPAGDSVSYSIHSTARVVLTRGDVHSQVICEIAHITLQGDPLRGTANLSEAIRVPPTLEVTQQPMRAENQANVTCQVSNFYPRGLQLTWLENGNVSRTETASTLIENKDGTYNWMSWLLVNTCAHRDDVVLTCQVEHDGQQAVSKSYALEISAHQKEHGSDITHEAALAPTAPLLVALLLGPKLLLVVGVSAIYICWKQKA

B1: Antibody A (antibody, human IgG1, kappa, L234A L235A)
heavy: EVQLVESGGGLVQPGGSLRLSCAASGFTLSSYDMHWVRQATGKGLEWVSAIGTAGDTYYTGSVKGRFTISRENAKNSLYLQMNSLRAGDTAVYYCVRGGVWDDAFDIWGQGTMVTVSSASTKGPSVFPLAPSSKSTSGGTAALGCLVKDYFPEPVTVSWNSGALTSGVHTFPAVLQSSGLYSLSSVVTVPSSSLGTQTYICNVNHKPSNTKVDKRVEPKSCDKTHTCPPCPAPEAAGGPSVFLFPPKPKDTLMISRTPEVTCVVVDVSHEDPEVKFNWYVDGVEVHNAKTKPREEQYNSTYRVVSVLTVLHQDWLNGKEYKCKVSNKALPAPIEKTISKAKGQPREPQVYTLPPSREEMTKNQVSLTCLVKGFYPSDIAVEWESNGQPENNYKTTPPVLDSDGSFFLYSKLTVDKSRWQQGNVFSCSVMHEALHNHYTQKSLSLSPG
light: DIQMTQSPSSLSASVGDRVTITCRASQDINNYLAWFQQKPGKAPKSLIYTASSLHSGVPSKFSGSGSGTDFTLTISSLQPEDFATYYCQQYVSYPYTFGQGTKLEIKRTVAAPSVFIFPPSDEQLKSGTASVVCLLNNFYPREAKVQWKVDNALQSGNSQESVTEQDSKDSTYSLSSTLTLSKADYEKHKVYACEVTHQGLSSPVTKSFNRGEC
With B1, the binding result in test [1] was “no binding”.

B2: Antibody B (antibody, human IgG1, kappa, L234A L235A, V domains shown)
VH: QVQLVQSGAEVKKPGASVKVSCKASGYTFTGNYMHWVRQAPGQGLEWMGWINPNSGGTNYAQKFQGRVTMTRDTSISTAYMELSRLRSDDTAVYYCVSGSGWYENYYYYGMDVWGQGTTVTVSS
VL: DIQMTQSPSSVSASVGDRVTITCRASQGISSWLAWYQQKPGKAPKLLIYAESSLQSGVPSRFSGSGSGTDFTLTISSLQPEDFATYYCQQANSFPLTFGGGTKVEIKR
As to B2, the midpoint of the response in test [2], the EC50, lay at 11800 pM.

B3: Anti-SIRPα antibody KWAR23 (antibody, V domains shown)
VH: EVQLQQSGAELVKPGASVKLSCTASGFNIKDYYIHWVQQRTEQGLEWIGRIDPEDGETKYAPKFQDKATITADTSSNTAYLHLSSLTSEDTAVYYCARWGAYWGQGTLVTVSS
VL: QIVLTQSPAIMSASPGEKVTLTCSASSSVSSSYLYWYQQKPGSSPKLWIYSTSNLASGVPARFSGSGSGTSYSLTISSMEAEDAASYFCHQWSSYPRTFGAGTKLELK
On to B3, for which the EC50 was 500 pM in test [3], 30 pM in test [4], 113 pM in test [5] and 300 pM in test [6].

B4: Antibody E22 (antibody, human IgG1, kappa, L234A L235A, V domains shown)
VH: QVQLQESGPGLVKPSETLSLTCTVSGGSIRDYYWSWIRQPPGKGLEWIGFIYYNGRTFYQSSLKSRVTISLDTSKNQFSLKMTSVTAADTAVYYCARVRAYSGIGLDGTDVWGQGTTVTVSS
VL: DIVMTQSPLSLPVTPGEPASISCRSSQSLLYSTGYTYLDWYLQRPGQSPQLLIYGGSSRASGVPDRFSGSGSGTDFTLKISRVEAEDVGVFYCGQALQTPLTFGQGTKVEIKR
On to B4, for which the binding result in test [7] is recorded as “no binding (tested: about 200 nM)”.

Usually EC50 stands for the midpoint of the concentration-response curve.
